Biological target: GST-PLIED-M1 (E. coli) (UniProt P0ABQ4)

acetylation yield of MDM2 K51 (LC-MS/MS) with MDM2 (1.4 μM), PLIED-M1 (4 μM), TMP-BAHA 1 (10 μM) and acetyl donor 2 (100 μM), 37 °C, 5 h: 70%
Substance: Recombinant human MDM2 (17-125) (from UniProt Q00987 17-125) (domain or fragment)

From article PMC10683481
